Experiment [1] has as its target equine choriogonadotropin (eCG) or PMSG (equine) (UniProt P01220). Nature of the experiment: ELISA on commercial eCG, antibody at 1 µg/ml.
Experiment [2] shares this target. The experiment can be described thus: ELISA on commercial eCG, antibody at 10 µg/ml. A general note: ELISA stands for enzyme-linked immunosorbent assay.

Chain of equine choriogonadotropin (eCG) or PMSG (equine) (P01220 25-120 limits assumed, chain 1 of 2): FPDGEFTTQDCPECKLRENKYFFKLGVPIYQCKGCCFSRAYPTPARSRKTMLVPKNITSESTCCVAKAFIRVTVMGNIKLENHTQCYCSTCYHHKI
Chain of equine choriogonadotropin (eCG) or PMSG (equine) (P08751 21-169 limits assumed, chain 2 of 2, further chain): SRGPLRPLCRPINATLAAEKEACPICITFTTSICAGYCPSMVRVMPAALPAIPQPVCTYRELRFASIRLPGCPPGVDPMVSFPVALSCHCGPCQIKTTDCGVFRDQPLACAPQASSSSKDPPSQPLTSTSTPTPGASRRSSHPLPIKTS

Consider “isotypic control (IgM directed against another type of antigen very remote from the gonadotropic hormones) (antibody)”, for which the OD in experiment [1] and in experiment [2] was 0.09 OD each time.
